Here are results for seven molecules from patent publication US20250073311A1, “DOSAGE REGIME” (ZEALAND PHARMA A/S, priority 2021, published 2025).

T1: human GLP-2 receptor (hGLP2-R) (human, UniProt O95838)
T1 sequence: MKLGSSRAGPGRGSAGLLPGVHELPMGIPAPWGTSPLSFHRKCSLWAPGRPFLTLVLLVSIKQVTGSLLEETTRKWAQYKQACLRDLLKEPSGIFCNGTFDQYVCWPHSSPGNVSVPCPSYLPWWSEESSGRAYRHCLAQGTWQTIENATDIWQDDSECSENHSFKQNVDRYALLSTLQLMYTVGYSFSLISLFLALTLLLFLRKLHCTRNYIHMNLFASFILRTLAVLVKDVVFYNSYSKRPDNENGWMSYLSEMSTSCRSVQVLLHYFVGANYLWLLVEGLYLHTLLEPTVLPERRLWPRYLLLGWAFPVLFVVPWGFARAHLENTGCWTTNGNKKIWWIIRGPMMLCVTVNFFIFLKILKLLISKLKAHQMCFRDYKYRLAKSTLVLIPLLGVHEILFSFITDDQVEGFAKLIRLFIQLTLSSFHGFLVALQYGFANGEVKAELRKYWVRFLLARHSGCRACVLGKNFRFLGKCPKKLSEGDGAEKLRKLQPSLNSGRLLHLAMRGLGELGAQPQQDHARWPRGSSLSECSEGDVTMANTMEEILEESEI

B1: Compound 32 (peptide)
peptide: H-H[Aib]EGSFTSELATILDK([βAla-Palmitoyl])QAARDFIAWLQQHKITD-OH
SMILES: CCCCCCCCCCCCCCCC(=O)NCCC(=O)NCCCC[C@H](NC(=O)[C@H](CC(=O)O)NC(=O)[C@H](CC(C)C)NC(=O)[C@@H](NC(=O)[C@@H](NC(=O)[C@H](C)NC(=O)[C@H](CC(C)C)NC(=O)[C@H](CCC(=O)O)NC(=O)[C@H](CO)NC(=O)[C@@H](NC(=O)[C@H](Cc1ccccc1)NC(=O)[C@H](CO)NC(=O)CNC(=O)[C@H](CCC(=O)O)NC(=O)C(C)(C)NC(=O)[C@@H](N)Cc1c[nH]cn1)[C@@H](C)O)[C@@H](C)O)[C@@H](C)CC)C(=O)N[C@@H](CCC(N)=O)C(=O)N[C@@H](C)C(=O)N[C@@H](C)C(=O)N[C@@H](CCCNC(=N)N)C(=O)N[C@@H](CC(=O)O)C(=O)N[C@@H](Cc1ccccc1)C(=O)N[C@H](C(=O)N[C@@H](C)C(=O)N[C@@H](Cc1c[nH]c2ccccc12)C(=O)N[C@@H](CC(C)C)C(=O)N[C@@H](CCC(N)=O)C(=O)N[C@@H](CCC(N)=O)C(=O)N[C@@H](Cc1c[nH]cn1)C(=O)N[C@@H](CCCCN)C(=O)N[C@H](C(=O)N[C@H](C(=O)N[C@@H](CC(=O)O)C(=O)O)[C@@H](C)O)[C@@H](C)CC)[C@@H](C)CC
B2: Compound 36 (peptide)
peptide: H-H[Aib]EGSFTSELATILDK(Stearoyl)QAARDFIAWLIQYKITD-OH
SMILES: CCCCCCCCCCCCCCCCCC(=O)NCCCC[C@H](NC(=O)[C@H](CC(=O)O)NC(=O)[C@H](CC(C)C)NC(=O)[C@@H](NC(=O)[C@@H](NC(=O)[C@H](C)NC(=O)[C@H](CC(C)C)NC(=O)[C@H](CCC(=O)O)NC(=O)[C@H](CO)NC(=O)[C@@H](NC(=O)[C@H](Cc1ccccc1)NC(=O)[C@H](CO)NC(=O)CNC(=O)[C@H](CCC(=O)O)NC(=O)C(C)(C)NC(=O)[C@@H](N)Cc1c[nH]cn1)[C@@H](C)O)[C@@H](C)O)[C@@H](C)CC)C(=O)N[C@@H](CCC(N)=O)C(=O)N[C@@H](C)C(=O)N[C@@H](C)C(=O)N[C@@H](CCCNC(=N)N)C(=O)N[C@@H](CC(=O)O)C(=O)N[C@@H](Cc1ccccc1)C(=O)N[C@H](C(=O)N[C@@H](C)C(=O)N[C@@H](Cc1c[nH]c2ccccc12)C(=O)N[C@@H](CC(C)C)C(=O)N[C@H](C(=O)N[C@@H](CCC(N)=O)C(=O)N[C@@H](Cc1ccc(O)cc1)C(=O)N[C@@H](CCCCN)C(=O)N[C@H](C(=O)N[C@H](C(=O)N[C@@H](CC(=O)O)C(=O)O)[C@@H](C)O)[C@@H](C)CC)[C@@H](C)CC)[C@@H](C)CC
B3: Compound 30 (peptide)
peptide: H-H[Aib]EGSFTSELATILDK([γGlu-C18 diacid])QAARDFIAWLIRHKITD-OH
SMILES: CC[C@H](C)[C@H](NC(=O)[C@H](Cc1ccccc1)NC(=O)[C@H](CC(=O)O)NC(=O)[C@H](CCCNC(=N)N)NC(=O)[C@H](C)NC(=O)[C@H](C)NC(=O)[C@H](CCC(N)=O)NC(=O)[C@H](CCCCNC(=O)CC[C@H](NC(=O)CCCCCCCCCCCCCCCCC(=O)O)C(=O)O)NC(=O)[C@H](CC(=O)O)NC(=O)[C@H](CC(C)C)NC(=O)[C@@H](NC(=O)[C@@H](NC(=O)[C@H](C)NC(=O)[C@H](CC(C)C)NC(=O)[C@H](CCC(=O)O)NC(=O)[C@H](CO)NC(=O)[C@@H](NC(=O)[C@H](Cc1ccccc1)NC(=O)[C@H](CO)NC(=O)CNC(=O)[C@H](CCC(=O)O)NC(=O)C(C)(C)NC(=O)[C@@H](N)Cc1c[nH]cn1)[C@@H](C)O)[C@@H](C)O)[C@@H](C)CC)C(=O)N[C@@H](C)C(=O)N[C@@H](Cc1c[nH]c2ccccc12)C(=O)N[C@@H](CC(C)C)C(=O)N[C@H](C(=O)N[C@@H](CCCNC(=N)N)C(=O)N[C@@H](Cc1c[nH]cn1)C(=O)N[C@@H](CCCCN)C(=O)N[C@H](C(=O)N[C@H](C(=O)N[C@@H](CC(=O)O)C(=O)O)[C@@H](C)O)[C@@H](C)CC)[C@@H](C)CC
B4: Compound 31 (peptide)
peptide: H-H[Aib]EGSFTSELATILDK([γGlu-C18 diacid])QAARDFIAWLISHKITD-OH
SMILES: CC[C@H](C)[C@H](NC(=O)[C@H](Cc1ccccc1)NC(=O)[C@H](CC(=O)O)NC(=O)[C@H](CCCNC(=N)N)NC(=O)[C@H](C)NC(=O)[C@H](C)NC(=O)[C@H](CCC(N)=O)NC(=O)[C@H](CCCCNC(=O)CC[C@H](NC(=O)CCCCCCCCCCCCCCCCC(=O)O)C(=O)O)NC(=O)[C@H](CC(=O)O)NC(=O)[C@H](CC(C)C)NC(=O)[C@@H](NC(=O)[C@@H](NC(=O)[C@H](C)NC(=O)[C@H](CC(C)C)NC(=O)[C@H](CCC(=O)O)NC(=O)[C@H](CO)NC(=O)[C@@H](NC(=O)[C@H](Cc1ccccc1)NC(=O)[C@H](CO)NC(=O)CNC(=O)[C@H](CCC(=O)O)NC(=O)C(C)(C)NC(=O)[C@@H](N)Cc1c[nH]cn1)[C@@H](C)O)[C@@H](C)O)[C@@H](C)CC)C(=O)N[C@@H](C)C(=O)N[C@@H](Cc1c[nH]c2ccccc12)C(=O)N[C@@H](CC(C)C)C(=O)N[C@H](C(=O)N[C@@H](CO)C(=O)N[C@@H](Cc1c[nH]cn1)C(=O)N[C@@H](CCCCN)C(=O)N[C@H](C(=O)N[C@H](C(=O)N[C@@H](CC(=O)O)C(=O)O)[C@@H](C)O)[C@@H](C)CC)[C@@H](C)CC
B5: Compound 34 (peptide)
peptide: H-H[Aib]EGSFTSELATILDK([AEEA-AEEA-γGlu-C20 diacid])QAARDFIAWLKQHKITD-OH
SMILES: CC[C@H](C)[C@H](NC(=O)[C@H](Cc1ccccc1)NC(=O)[C@H](CC(=O)O)NC(=O)[C@H](CCCNC(=N)N)NC(=O)[C@H](C)NC(=O)[C@H](C)NC(=O)[C@H](CCC(N)=O)NC(=O)[C@H](CCCCNC(=O)COCCOCCNC(=O)COCCOCCNC(=O)CC[C@H](NC(=O)CCCCCCCCCCCCCCCCCCC(=O)O)C(=O)O)NC(=O)[C@H](CC(=O)O)NC(=O)[C@H](CC(C)C)NC(=O)[C@@H](NC(=O)[C@@H](NC(=O)[C@H](C)NC(=O)[C@H](CC(C)C)NC(=O)[C@H](CCC(=O)O)NC(=O)[C@H](CO)NC(=O)[C@@H](NC(=O)[C@H](Cc1ccccc1)NC(=O)[C@H](CO)NC(=O)CNC(=O)[C@H](CCC(=O)O)NC(=O)C(C)(C)NC(=O)[C@@H](N)Cc1c[nH]cn1)[C@@H](C)O)[C@@H](C)O)[C@@H](C)CC)C(=O)N[C@@H](C)C(=O)N[C@@H](Cc1c[nH]c2ccccc12)C(=O)N[C@@H](CC(C)C)C(=O)N[C@@H](CCCCN)C(=O)N[C@@H](CCC(N)=O)C(=O)N[C@@H](Cc1c[nH]cn1)C(=O)N[C@@H](CCCCN)C(=O)N[C@H](C(=O)N[C@H](C(=O)N[C@@H](CC(=O)O)C(=O)O)[C@@H](C)O)[C@@H](C)CC
B6: Compound 33 (peptide)
peptide: H-H[Aib]EGSFTSELATILDK([AEEA-γGlu-C18 diacid])QAARDFIAWLYQHKITD-OH
SMILES: CC[C@H](C)[C@H](NC(=O)[C@H](Cc1ccccc1)NC(=O)[C@H](CC(=O)O)NC(=O)[C@H](CCCNC(=N)N)NC(=O)[C@H](C)NC(=O)[C@H](C)NC(=O)[C@H](CCC(N)=O)NC(=O)[C@H](CCCCNC(=O)COCCOCCNC(=O)CC[C@H](NC(=O)CCCCCCCCCCCCCCCCC(=O)O)C(=O)O)NC(=O)[C@H](CC(=O)O)NC(=O)[C@H](CC(C)C)NC(=O)[C@@H](NC(=O)[C@@H](NC(=O)[C@H](C)NC(=O)[C@H](CC(C)C)NC(=O)[C@H](CCC(=O)O)NC(=O)[C@H](CO)NC(=O)[C@@H](NC(=O)[C@H](Cc1ccccc1)NC(=O)[C@H](CO)NC(=O)CNC(=O)[C@H](CCC(=O)O)NC(=O)C(C)(C)NC(=O)[C@@H](N)Cc1c[nH]cn1)[C@@H](C)O)[C@@H](C)O)[C@@H](C)CC)C(=O)N[C@@H](C)C(=O)N[C@@H](Cc1c[nH]c2ccccc12)C(=O)N[C@@H](CC(C)C)C(=O)N[C@@H](Cc1ccc(O)cc1)C(=O)N[C@@H](CCC(N)=O)C(=O)N[C@@H](Cc1c[nH]cn1)C(=O)N[C@@H](CCCCN)C(=O)N[C@H](C(=O)N[C@H](C(=O)N[C@@H](CC(=O)O)C(=O)O)[C@@H](C)O)[C@@H](C)CC

Numbered stars: 1 amine (or outer) side, 2 acyl side, 3 side chain; on linkers, the order of the positions; unused ones are H or OH. Square brackets hold non-standard residues; d marks the D form. Side chains are listed from the residue outwards. * marks the point of attachment. C20 diacid = O=C(O)CCCCCCCCCCCCCCCCCCC(=O)*; C18 diacid = O=C(O)CCCCCCCCCCCCCCCCC(=O)*; γGlu = O=C(O)[C@H](CCC(=O)[*:2])N[*:1]; Stearoyl = CCCCCCCCCCCCCCCCCC(=O)*; Palmitoyl = CCCCCCCCCCCCCCCC(=O)*; AEEA = NCCOCCOCC(=O)O; Aib = CC(C)(N)C(=O)O; βAla = NCCC(=O)O

For the first test, the target named is human glucagon-like peptide 1 receptor (GLP-1R) (human, UniProt P43220). Briefly: cell-based or functional assay.
Regarding H-H[Aib]EGSFTSELATILDK([AEEA-AEEA-AEEA-iso‑Lys-C20 diacid])QAARDFIAWLIQQKITD-OH [Compound 35], the “EC50 GLP-1 (nM), cAMP AlphaScreen” value was determined as 0.099 nM.

Turning to B1, the “EC50 GLP-1 (nM), cAMP AlphaScreen” value turned out to be 0.38 nM.

For the molecule B2, the “EC50 GLP-1 (nM), cAMP AlphaScreen” value amounted to 0.32 nM.

In the case of B3, the “EC50 GLP-1 (nM), cAMP AlphaScreen” value amounted to 0.31 nM.

Regarding B4, the “EC50 GLP-1 (nM), cAMP AlphaScreen” value was determined as 0.27 nM.

B5: the “EC50 GLP-1 (nM), cAMP AlphaScreen” value was 0.28 nM.

Regarding B6, the “EC50 GLP-1 (nM), cAMP AlphaScreen” value is 0.85 nM.

A further test has as its target T1, human GLP-2 receptor (hGLP2-R). As to the kind of experiment: cell-based or functional assay.
Regarding H-H[Aib]EGSFTSELATILDK([AEEA-AEEA-AEEA-iso‑Lys-C20 diacid])QAARDFIAWLIQQKITD-OH [Compound 35], the “EC50 GLP-2 (nM), cAMP AlphaScreen” value came out at 0.3 nM.

Take B1: the “EC50 GLP-2 (nM), cAMP AlphaScreen” value was 0.46 nM.

As for B2, the “EC50 GLP-2 (nM), cAMP AlphaScreen” value is 3.2 nM.

B3: the “EC50 GLP-2 (nM), cAMP AlphaScreen” value came out at 0.38 nM.

Regarding B4, the “EC50 GLP-2 (nM), cAMP AlphaScreen” value came to 0.24 nM.

For B5, the “EC50 GLP-2 (nM), cAMP AlphaScreen” value stood at 0.13 nM.

As to B6, the “EC50 GLP-2 (nM), cAMP AlphaScreen” value was 0.072 nM.
